According to paper PMC2897767, “Two Distinct Mechanisms for Actin Capping Protein Regulation—Steric and Allosteric Inhibition” (PLoS Biology, 2010):
Like-named read-outs stand apart in the source and are kept apart here.

Columns and labels:
[1] = target: CP; conditions: ref Fujiwara, et al.; cited from earlier work
Text: We tested the importance of the C-terminal flanking regions of the CP-binding motif using a binding assay (Table 2; the constructs used for the measurement are shown in Figure 9B). […] In the second CP binding site in the CP/CBR115 complex, human CARMIL Val1034 (corresponding to mouse CA1038), which is missing in GST-76, forms multiple interactions with CP α-subunit residues. Thus, the absence of this key valine in GST-CA76 results in the lower CP binding affinity compared with the full active CARMIL fragments.

[2] = test system: CP; assay: SPR binding of CP to immobilized GST-CD2AP / GST-CARMIL fragments; parameters: species or system chicken; conditions: 20°C; for koff / kon: SPR (Biacore), CP perfused, 1:1 binding model; for koff: GST-fusion immobilized; for kon: GST-fusion immobilized via anti-GST antibody on CM5 chip, 50 mM KCl, 1 mM MgCl2, 0.005% Tween-20, 10 mM imidazole pH 7.0
Experimental: (§1) Expression vectors for chicken CPfull and CPΔβC were constructed in pETDuet-1 by PCR, using pET-3d/CP [38] as the template. CP was expressed in E. coli Rosetta2 (DE3) and was purified as described. V-1 (human), expressed in E. coli Rosetta2 (DE3) as a GST-fusion protein, was affinity-purified and the tag was removed. Synthetic peptides derived from CARMIL proteins were obtained from Invitrogen. For crystallization, CP was incubated with a 1.2–2.0-fold molar excess of V-1 or CARMIL peptides at 4°C for 2 h, followed by gel filtration to purify the complexes. Expression vectors for the GST-CA constructs were prepared from the mouse cDNA clone as previously described. Vectors for GST-CD fragments were constructed by PCR cloning using a human whole brain cDNA library (Clontech) as the template. Amplified DNA fragments were cloned into pGEX-6P-1. GST-fusion proteins were expressed in E. coli Rosetta2 (DE3) cells and affinity-purified using glutathione sepharose resin. Mutations were introduced using a Quikchange mutagenesis kit (Stratagene). Actin was prepared from rabbit skeletal muscle, as previously described, and was further purified by gel filtration chromatography. Pyrene labeled-actin was prepared as described. Spectrin-actin seeds were prepared from rabbit red blood cells, as previously described.
(§2) The binding affinities of CP for V-1 or CARMIL proteins were evaluated by surface plasmon resonance measurements with Biacore 3000 or Biacore 2000 instruments (GE Healthcare). GST-fusion proteins (GST-V-1, GST-CA, or GST-CD) were immobilized onto a CM5 sensor chip up to 200 RU (response units; 200 pg/mm^2) via anti-GST antibodies. CP at various concentrations in running buffer (50 mM KCl, 1 mM MgCl2, 0.005% Tween-20, 10 mM imidazole, pH 7.0) was perfused over the chip at 20°C, at a flow rate of 20 µl/min. Response curves were obtained by subtracting the background signal generated simultaneously on a control flow cell with immobilized GST. To measure the effect of the CARMIL peptides on the facilitation of CP/V-1 dissociation (in Figure 11C and 11D), we used the “co-inject” mode for successive injections of the peptides followed by CP. Kinetic parameters were determined by fitting the sensorgrams to a simple 1∶1 binding model, using the Bia-evaluation software (GE Healthcare). KD values were obtained from the kinetic rate constants. […] KD values were evaluated by plotting these values against the concentrations of CP.

[3] = test system: CPfull (wild type CP); assay: Actin polymerization assay (barbed end elongation from spectrin-actin seeds): inhibition of CP capping; format: biochemical, chicken; conditions: actin 1.2 µM (5% pyrene-labeled), 7.2 nM CPfull, 25°C (Figure 9F)
Experimental: (A) Superposition of the C-termini of the peptides. CD Phe505 and CK Arg169 are shown as stick models. The conserved proline at the C-terminus of the motifs is shown as balls. (B) CD2AP constructs used for biochemical assays. (C) CARMIL constructs used for biochemical assays. […] Actin (1.2 µM, 5% pyrene-labeled) was polymerized from spectrin-actin seeds in the presence of 3.6 nM CPfull (D), 10 nM CPβΔC (E), or 7.2 nM CPfull (F) with various concentrations of CARMIL peptides or GST-CA constructs.
The barbed end elongation assay from spectrin-actin seeds was performed essentially as previously described. Briefly, G-actin was stored in G-buffer (0.2 mM CaCl2, 0.2 mM ATP, 0.5 mM DTT and 10 mM imidazole, pH 7.0). At 90 s prior to polymerization, the Ca^2+ was replaced with Mg^2+, by the addition of 1/10 volume of 10 mM EGTA and 1 mM MgCl2 to G-actin. […] Actin polymerization was measured by monitoring the pyrene-actin fluorescence (excitation 370 nm; emission 410 nm) at 25°C.
(0.16 MB TIF) Click here for additional data file.

[4] = test system: CP (β) D67N; assay: SPR binding of mutant CP to immobilized GST-CD56 / GST-CA92; parameters: species or system chicken; conditions: analyte CP (β) D67N, 20°C, pH 7.0
Experimental: as §1, §2

[5] = test system: CP (β) D44N; assay: as above; parameters: species or system chicken; conditions: analyte CP (β) D44N, 20°C, pH 7.0
Experimental: as §1, §2

[6] = test system: CP (β) Y64F; assay: as above; parameters: species or system chicken; conditions: analyte CP (β) Y64F, 20°C, pH 7.0
Experimental: as §1, §2

[7] = test system: CP (β) D63N; assay: as above; parameters: species or system chicken; conditions: analyte CP (β) D63N, 20°C, pH 7.0
Experimental: as §1, §2

[8] = test system: CP; conditions: estimated, cited from earlier work
Text: How do CARMIL proteins inhibit the capping activity of CP in an allosteric manner? […] We propose that CARMIL proteins inhibit CP in a similar manner (Figure 13C); CARMIL proteins limit the conformational distribution of CP to ...

B1: mCAH3: mCAH3 fragment, mouse CARMIL residues 965-1038 (protein, UniProt Q6EDY6 965-1038, looked up, fragment)
chain: VRQEKRSSGLISELPSEEGRRLEHFTKLRPKRNKKQQPTQAAVCTISILPQDGEQNGLMGRVDEGVDEFFTKKV
Kd [1]: ~1 nM

B2: GST-CA63: GST fusion of mouse CARMIL residues 962–1024 (protein)
chain: FPSVRQEKRSSGLISELPSEEGRRLEHFTKLRPKRNKKQQPTQAAVCTISILPQDGEQNGLMG
modifications: left off: GST, end not stated, kept
koff ([2]; pH 7.0): >0.1 s⁻¹
KD (in words) ([2]; SPR, pH 7.0): micromolar range

B3: GST-CA92: GST fusion of mouse CARMIL residues 962–1053 (protein)
chain: FPSVRQEKRSSGLISELPSEEGRRLEHFTKLRPKRNKKQQPTQAAVCTISILPQDGEQNGLMGRVDEGVDEFFTKKVTKMDCKRSSSRSSDA
modifications: left off: GST, end not stated, kept
CP inhibitory activity of GST-CARMIL constructs [3]: strongest CP inhibitory effect
koff [4]: >0.1 s⁻¹
koff [5]: >0.1 s⁻¹
Kon [6]: 460000 M⁻¹ s⁻¹
koff [6]: 0.0046 s⁻¹
koff [7]: >0.1 s⁻¹
kon [2]: 1.6e+06 M⁻¹ s⁻¹
koff ([2]; pH 7.0): 0.0052 s⁻¹

B4: CARMIL: multi-domain protein (∼150 kDa) that binds CP and uncaps filaments (protein, UniProt Q6EDY6 1-1374, looked up)
F-actin-uncapping protein …: MTDESSDVPRELMESIKDVIGRKIKISVKKKVKLEVKGDRVENKVLVLTSCRAFLLSARIPSKLELTFSYLEIHGVICHKPAQMVVETEKCNMSMKMVSPEDVSEVLAHIGTCLRRIFPGLSPLRIMKKVSMEPSERLASLQALWDSQTLAEPGPCGGFSQMYACVCDWLGFSYKEEVQWDVDTIYLTQDTRELNLQDFSHLEHRDLIPIIAALEYNQWFTKLSSKDLKLSTDVCEQILRVVSRSNRLEELVLENAGLRIDFAQKLAGALAHNPNSGLHTINLAGNSLEDRGVSSLSIQFAKLPKGLKHLNLSKTSLSPKGVNSLCQSLSANPLTASTLTHLDLSGNALRGDDLSHMYNFLAQPNTIVHLDLSNTECSLEMVCSALLRGCLQCLAVLNLSRSVFSHRKGKEVPPSFKQFFSSSLALIQINLSGTKLSPEPLKALLLGLACNHSLKGVSLDLSNCELGHCLRSGGAQVLEGCIAEIHNITSLDISDNGLESDLSTLIVWLSKNRSIQHLALGKNFNNMKSKNLTPVLDNLVQMIQDEDSPLQSLSLADSKLKAEVTIIINALGSNTSLTKVDISGNGMGDMGAKMLAKALQINTKLRTVIWDKNNITAQGFQDIAVAMEKNYTLRFMPIPMYDAAQALKTNPEKTEEALQKIENYLLRNHETRKYLQEQAYRLQQGIVTSTTQQMIDRICVKVQDHLNSLRACGGDAIQEDLKAAERLMRDAKNSKTLLPNLYHVGGASWAGASGLSSSPIQETLESMAGEVTRVVDEQLKDLLESMVDAAETLCPNVMRKAHIRQDLIHASTEKISIPRTFVKNVLLEQSGIDILNKISEVKLTVASFLSDRIVDEILDSLSSSHRKLANHFSRLNKSLPQREDLEVELVEEKPVKRAILTVEDLTEVERLEDLDTCMMTPKSKRKSIHSRMLRPVSRAFEMEFDLDKALEEVPIHIEDPPFPSVRQEKRSSGLISELPSEEGRRLEHFTKLRPKRNKKQQPTQAAVCTISILPQDGEQNGLMGRVDEGVDEFFTKKVTKMDCKRSSSRSSDAHELGEGDEKKKRDSRRSGFLNLIKSRSRSERPPTVLMTEELSSPKGAMRSPPVDTTRKEIKAAEHNGAPDRTEEIKTPEPLEEGPAEEAGRAERSDSRGSPQGGRRYVQVMGSGLLAEMKAKQERRAACAQKKLGNDVISQDPSSPVSCNTERLEGGATVPKLQPGLPEARFGSGTPEKNAKAEPRVDGGCRSRSSSSMPTSPKPLLQSPKPSPSARPSIPQKPRTASRPEDTPDSPSGPSSPKVALLPPILKKVSSDKERDGQNSSQSSPRSFSQEASRRSWGPAQEYQEQKQRSSGKDGHQGSKCSDSGEEAEKEFIFV
affinity for barbed end-bound CP lower than for free CP ([8]; ref 23): 10- to 100 fold
affinity for barbed end-bound CP lower than for free CP ([8]; ref 29): 200 fold

B5: GST-CA76: GST fusion of mouse CARMIL residues 962–1037 (protein)
chain: FPSVRQEKRSSGLISELPSEEGRRLEHFTKLRPKRNKKQQPTQAAVCTISILPQDGEQNGLMGRVDEGVDEFFTKK
modifications: left off: GST, end not stated, kept
kon [2]: 230000 M⁻¹ s⁻¹
koff ([2]; pH 7.0): 0.019 s⁻¹
